Experimental data as given in patent US20120288510A1 (UNIVERSITY OF MASSACHUSETTS, published 2012).
Like-named read-outs stand apart in the source and are kept apart here. No end group written: not given here.

Columns and labels:
E2-D [1] = assay: ELISA on coated bacterial fusion protein; two-fold antibody dilutions; goat anti-human AP, PNPP
[2] = target: T1, E2-G bacterially expressed thioredoxin fusion protein (pET32-E2-G, E2 amino acids 412 to 423) (Hepatitis C virus genotype 1a, not fully specified (N-terminus); also: N-terminal thioredoxin fusion partner); assay: as above
T1 construct: also called WT; not shown: thioredoxin, N-terminal fusion partner of the pET32 vector; C-terminal myc and 6 histidine tags
T1 chain: QLINTNGSWHIN-{myc tag-His6}

[3] = target: T2, soluble HCV genotype 1b E2-661 (pCDNA-1b-E2-661) (Hepatitis C virus genotype 1b); assay: ELISA on plate coated with 2 µg/ml antigen; two-fold antibody dilutions; goat anti-human AP, PNPP
T2 construct: range 364-661

N415A [4] = target: T3, N415A (not fully specified); assay: ELISA on coated bacterial fusion protein; two-fold antibody dilutions; goat anti-human AP, PNPP
T3 construct: alanine scanning mutant of E2-G; also called pET32-E2-G-N415A; not shown: N-terminal thioredoxin partner and vector-encoded stretch of pET32
T3 chain: QLIATNGSWHINHHHHHH

G418A = target: T4, G418A; assay: as above
T4 construct: alanine scanning mutant of E2-G; also called pET32-E2-G-G418A

S419A [5] = target: T5, S419A; assay: as above
T5 construct: alanine scanning mutant of E2-G; also called pET32-E2-G-S419A

I414A [6] = target: T6, I414A (not fully specified); assay: as above
T6 construct: alanine scanning mutant of E2-G; also called pET32-E2-G-I414A (printed in the text as pET32-E2-G-1414A); not shown: N-terminal thioredoxin partner and vector-encoded stretch of pET32
T6 chain: QLANTNGSWHINHHHHHH

N417A [7] = target: T7, N417A; assay: as above
T7 construct: alanine scanning mutant of E2-G; also called pET32-E2-G-N417A

Q412A [8] = target: T8, Q412A (not fully specified); assay: as above
T8 construct: alanine scanning mutant of E2-G; also called pET32-E2-G-Q412A; not shown: N-terminal thioredoxin partner and vector-encoded stretch of pET32
T8 chain: ALINTNGSWHINHHHHHH

I422A [9] = target: T9, I422A; assay: as above
T9 construct: alanine scanning mutant of E2-G; also called pET32-E2-G-I422A (printed in the text as pET32-E2-G-1422A)

N423A [10] = target: T10, N423A; assay: as above
T10 construct: alanine scanning mutant of E2-G; also called pET32-E2-G-N423A

L413A = assay: as above
T416A [11] = target: T11, T416A; assay: as above
T11 construct: alanine scanning mutant of E2-G; also called pET32-E2-G-T416A; not shown: N-terminal thioredoxin partner and vector-encoded stretch of pET32

H421A [12] = target: T12, H421A; assay: as above
T12 construct: alanine scanning mutant of E2-G; also called pET32-E2-G-H421A

[13] = target: T1, E2-G bacterially expressed thioredoxin …; assay: as above
[14] = target: E2-G bacterially expressed fusion protein with the E2 412-423 sequence of a genotype 5 strain (genba (Hepatitis C virus genotype 5)); assay: ELISA, fusion protein coated on plate
[15] = target: T13, E2-G bacterially expressed fusion protein with the E2 412-423 sequence of genotype 2b (Hepatitis C virus genotype 2b, also: vector linker residues not given here); assay: ELISA on coated bacterial fusion protein; two-fold antibody dilutions; goat anti-human AP, PNPP
T13 construct: not shown: thioredoxin, N-terminal fusion partner of the pET32 vector; C-terminal myc and 6 histidine tags
T13 chain: thioredoxin-HLVNSNGSWHIN-{myc tag-His6 tag}

[16] = target: T14, E2-G bacterially expressed fusion protein with the E2 412-423 sequence of genotype 5a (Hepatitis C virus genotype 5a, not fully specified (N-terminus); also: N-terminal thioredoxin fusion partner); assay: as above
T14 construct: not shown: thioredoxin, N-terminal fusion partner of the pET32 vector; C-terminal myc and 6 histidine tags
T14 chain: QFVNTNGSWHIN-{myc tag-His6}

[17] = target: T15, E2-G bacterially expressed fusion protein with the E2 412-423 sequence of genotype 6k (Hepatitis C virus genotype 6k, not fully specified (N-terminus); also: N-terminal thioredoxin fusion partner); assay: as above
T15 construct: not shown: thioredoxin, N-terminal fusion partner of the pET32 vector; C-terminal myc and 6 histidine tags
T15 chain: QLINSNGSWHVN-{myc tag-His6}

[18] = target: T16, E2-G bacterially expressed fusion protein with the E2 412-423 sequence of genotype 3a (Hepatitis C virus genotype 3a, also: vector linker residues not given here); assay: as above
T16 construct: not shown: thioredoxin, N-terminal fusion partner of the pET32 vector; C-terminal myc and 6 histidine tags
T16 chain: thioredoxin-QLVNSSGSWHIN-{myc tag-His6 tag}

[19] = target: T17, E2-G bacterially expressed fusion protein with the E2 412-423 sequence of genotype 4a (Hepatitis C virus genotype 4a, also: vector linker residues not given here); assay: as above
T17 construct: not shown: thioredoxin, N-terminal fusion partner of the pET32 vector; C-terminal myc and 6 histidine tags
T17 chain: thioredoxin-QLINSNGSWHIN-{myc tag-His6 tag}

[20] = target: T18, E2-G bacterially expressed fusion protein with the E2 412-423 sequence of genotype 6g (Hepatitis C virus genotype 6g, not fully specified (N-terminus); also: N-terminal thioredoxin fusion partner); assay: as above
T18 construct: not shown: thioredoxin, N-terminal fusion partner of the pET32 vector; C-terminal myc and 6 histidine tags
T18 chain: QLIKTNGSWHIN-{myc tag-His6}

[21] = target: T1, E2-G bacterially expressed thioredoxin …; assay: as above
[22] = target: T1, E2-G bacterially expressed thioredoxin …; assay: Biacore SPR; antibody captured on goat anti-human IgG Fc, E2-G flowed over at varying concentrations; BIAevaluation fit
[23] = target: T13, E2-G bacterially expressed fusion …; assay: ELISA on coated bacterial fusion protein; two-fold antibody dilutions; goat anti-human AP, PNPP
[24] = target: T15, E2-G bacterially expressed fusion …; assay: as above
[25] = target: T16, E2-G bacterially expressed fusion …; assay: as above
[26] = target: T17, E2-G bacterially expressed fusion …; assay: as above
[27] = target: T18, E2-G bacterially expressed fusion …; assay: as above
[28] = target: T1, E2-G bacterially expressed thioredoxin …; assay: as above
N415A [29] = target: T3, N415A; assay: as above
S419A [30] = target: T5, S419A; assay: as above; remark: listed apart in the source
I414A [31] = target: T6, I414A; assay: as above
N417A [32] = target: T7, N417A; assay: as above; remark: listed apart in the source
Q412A [33] = target: T8, Q412A; assay: as above
I422A [34] = target: T9, I422A; assay: as above; remark: listed apart in the source
N423A [35] = target: T10, N423A; assay: as above; remark: listed apart in the source
T416A [36] = target: T11, T416A; assay: as above; remark: listed apart in the source
H421A [37] = target: T12, H421A; assay: as above; remark: listed apart in the source
[38] = target: T1, E2-G bacterially expressed thioredoxin …; assay: as above
E2-D [39] = assay: as above; remark: listed apart in the source

E2-D, sequence (P27958 436-463, tags left off): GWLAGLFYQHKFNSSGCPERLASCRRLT

B1: human antibody 95-2 (antibody, V domains shown)
VH: QVQLVESGGGVVQPGRSLRLSCAASGFTFSSYGMHWVRQAPGKGLEWVAVIWFDGNNQYYADSVKGRFTISRDNSKNTLYLQMNSLRAEDTAVYYCARDIFTVVRGFFIYFDYWGQGTLVTVSS
VL: EIVLTQSPATLSLSPGERATLSCRASQSVGSYLAWYQQKPGQAPRLLIYDASNRATGIPARFSGSGSGTDFTLTISSLEPEDFAVYYCQQRSNWVTFGQGTRLEIK
notes: also called clone 95-2
- binding result (E2-D [1]): no binding (tested: 1 µg/ml)
- EC50 (read off the curve) [2]: ~0.04 µg/mL
- EC50 (read off the curve) [3]: ~0.1 µg/mL
- EC50 (read off the curve) (N415A [4]): ~0.02 µg/mL
- EC50 (read off the curve) (G418A): ~0.03 µg/mL
- EC50 (read off the curve) (S419A [5]): ~0.02 µg/mL
- EC50 (read off the curve) (I414A [6]): ~0.02 µg/mL
- EC50 (read off the curve) (N417A [7]): ~0.02 µg/mL
- EC50 (read off the curve) (Q412A [8]): ~0.02 µg/mL
- EC50 (read off the curve) (I422A [9]): ~0.02 µg/mL
- EC50 (read off the curve) (N423A [10]): ~0.02 µg/mL
- binding result (L413A): binds
- EC50 (read off the curve) (T416A [11]): ~0.02 µg/mL
- EC50 (read off the curve) (H421A [12]): ~0.02 µg/mL
- EC50 (read off the curve) [13]: ~0.02 µg/mL
- fold reduction of recognition (reference not named) [14]: 10 fold
- EC50 (read off the curve) [15]: ~0.02 µg/mL
- EC50 (read off the curve) [16]: ~0.02 µg/mL
- EC50 (read off the curve) [17]: ~0.02 µg/mL
- EC50 (read off the curve) [18]: ~0.02 µg/mL
- EC50 (read off the curve) [19]: ~0.02 µg/mL
- EC50 (read off the curve) [20]: ~0.02 µg/mL
- EC50 (read off the curve) [21]: ~0.02 µg/mL
- Kd [22]: 1.9 nM
- koff [22]: 0.0003 s⁻¹
- kon [22]: 160000 M⁻¹ s⁻¹

B2: human antibody 83-128 (antibody, V domains shown)
VH: QVQLVESGGGVVQPGRSLRLSCTASGFTFNNYGMHWVRQTPGKGLEWLAVIWFDENNKYYADSVRGRFTISRDNSKNTLFLQMNSLKTEDTAMYYCARDISLVRDAFIYFDFWGLGTLVTVSS
VL: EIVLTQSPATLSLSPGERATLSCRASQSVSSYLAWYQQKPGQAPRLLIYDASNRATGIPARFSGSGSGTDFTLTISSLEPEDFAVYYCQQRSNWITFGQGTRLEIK
- EC50 (read off the curve) [23]: ~0.006 µg/mL
- EC50 (read off the curve) [24]: ~0.006 µg/mL
- EC50 (read off the curve) [25]: ~0.006 µg/mL
- EC50 (read off the curve) [26]: ~0.006 µg/mL
- EC50 (read off the curve) [27]: ~0.006 µg/mL
- EC50 (read off the curve) [28]: ~0.006 µg/mL
- EC50 (read off the curve) (N415A [29]): ~0.02 µg/mL
- EC50 (read off the curve) (S419A [30]): ~0.02 µg/mL
- EC50 (read off the curve) (I414A [31]): ~0.03 µg/mL
- EC50 (read off the curve) (N417A [32]): ~0.02 µg/mL
- EC50 (read off the curve) (Q412A [33]): ~0.02 µg/mL
- EC50 (read off the curve) (I422A [34]): ~0.02 µg/mL
- EC50 (read off the curve) (N423A [35]): ~0.02 µg/mL
- EC50 (read off the curve) (T416A [36]): ~0.02 µg/mL
- EC50 (read off the curve) (H421A [37]): ~0.02 µg/mL
- EC50 (read off the curve) [38]: ~0.02 µg/mL
- binding result (E2-D [39]): no binding (tested: 1 µg/ml)
- Kd [22]: 3.8 nM
- koff [22]: 0.00073 s⁻¹
- kon [22]: 190000 M⁻¹ s⁻¹
